Values of other authors, collected in PMC3288267.

What was measured:
[1] = biological target: transferrin receptor 1 (TfR), immobilised on SPR chip (UniProt P02786); assay: Surface plasmon resonance, kinetic; details: pH endosomal pH (numeric value not given)
[2] = biological target: transferrin receptor 1 (TfR), immobilised on SPR chip (UniProt P02786); assay: Surface plasmon resonance, equilibrium binding; details: pH endosomal pH (numeric value not given)

UniProt P02786, sequence (P02786 whole entry): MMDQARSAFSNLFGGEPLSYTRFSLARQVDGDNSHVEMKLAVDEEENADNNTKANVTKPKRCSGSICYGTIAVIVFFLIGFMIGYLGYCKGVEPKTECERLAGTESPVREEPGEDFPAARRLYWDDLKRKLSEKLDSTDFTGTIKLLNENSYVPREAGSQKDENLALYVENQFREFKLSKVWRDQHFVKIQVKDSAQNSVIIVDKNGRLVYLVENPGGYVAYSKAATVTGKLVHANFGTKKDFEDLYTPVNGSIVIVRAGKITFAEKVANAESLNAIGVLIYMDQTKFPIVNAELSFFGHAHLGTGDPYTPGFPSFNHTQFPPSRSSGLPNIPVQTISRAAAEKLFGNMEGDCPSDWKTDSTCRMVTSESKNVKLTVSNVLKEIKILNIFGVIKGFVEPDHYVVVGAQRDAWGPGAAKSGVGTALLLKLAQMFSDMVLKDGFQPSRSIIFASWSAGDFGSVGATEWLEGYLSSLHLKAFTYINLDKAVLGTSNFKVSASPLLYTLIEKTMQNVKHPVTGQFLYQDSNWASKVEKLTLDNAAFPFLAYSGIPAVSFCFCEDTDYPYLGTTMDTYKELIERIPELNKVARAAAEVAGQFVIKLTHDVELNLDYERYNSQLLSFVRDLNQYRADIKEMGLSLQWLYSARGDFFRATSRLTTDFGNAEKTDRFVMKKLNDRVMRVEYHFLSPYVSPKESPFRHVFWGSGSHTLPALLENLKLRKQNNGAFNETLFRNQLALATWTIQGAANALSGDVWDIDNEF

Substance: apo-transferrin (iron-free), SPR analyte
- KD (from kd,end/ka,end) [1]: 1.3 nM
- ka,end (association rate constant; kend,a in Table 1) [1]: 4.4 ± 0.4 × 10^7 min^−1 M^−1
- kd,end (dissociation rate constant; kend,d in Table 1) [1]: 0.000933 ± 0.0002 s⁻¹
- KD (equilibrium SPR) [2]: <15 nM
